The supplement of paper PMC9170038

Tested on: MS2 coat protein
Assay: apparent KD of MS2 coat protein; designed switch direction (-1 OFF switch, 1 ON switch): -1; higher = weaker reporter binding
Outline: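 On Illumina chips, designed RNA switches with common flanks were made by stalled E. coli RNA polymerase. Titrations with SNAP-549-labelled MS2 coat protein, doubling from 0.7 or 1.5 nM to 3 µM, were done with no input, with 200 uM small-molecule ligand, or with an oligonucleotide input. Apparent KD is the median per design over clusters, from curve fits of normalised cluster fluorescence.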

[1] = Eterna round: R95, input ligand: microRNA oligo, concentration not stated
[2] = input ligand: microRNA oligo, concentration not stated
[3] = Eterna round: R95, input ligand: FMN 200 uM
[4] = Eterna round: R95, input ligand: none

| Sequence | apparent KD of MS2 coat protein [1] [nM] | apparent KD of MS2 coat protein (input ligand: FMN 200 uM) [nM] | apparent KD of MS2 coat protein [2] [nM] | apparent KD of MS2 coat protein (input ligand: none) [nM] | apparent KD of MS2 coat protein [3] [nM] | apparent KD of MS2 coat protein [4] [nM] |
| --- | --- | --- | --- | --- | --- | --- |
| UCGAGGUCAGGAUAUACAUGAGGAUCACCCAUGUUGAGAUAAGGUAGGAAAAGAGUAGGUAGAAGGGACGAGAG [JR_Exclu3_Sub047] (puzzle: Exclusion 3) | 27.3 | – | – | – | – | – |
| GAGUGACAUGAGGAUCACCCAUGUGAGGAUAUCGGACGGACCAAAUUAACAACAAACGCGAGAAGGCACAUCGG [Exclusion 1 V19] (puzzle: Exclusion 1) | 74.9 | – | – | – | – | – |
| UGUUGUCGCGCAGGAUAUUGUCAACAGGCAGUAGGAUAUCCGAAAGGAGAAGGACCGCCAACAGGCGAGAAGGGCGGGACAACU [pwkr exNG2 2xF7 2xFMN.9] (Eterna round: R96, puzzle: Exclusion NG 2) | – | 32.1 | 35.7 | 16 | – | – |
| UUAUUAUAUGUAGGAUAUGCGUAUUAUUGUUAUGCAGAAGGACAUGAGGAUCACCCAUGUAUAUUAUUGUUAUGUAUUAUAUAU [Title] (Eterna round: R96, puzzle: Exclusion NG 1) | – | – | 26.6 | – | – | – |
| GGUUCACGAGGAUAUCGAUUUUAGUACAUGAGGAUCACCCAUGUUGUCCAGGUUUCGAUUCGAGAAGGCGUGAACC [LRO-Ex5-04] (puzzle: Exclusion 5) | 20.8 | – | – | – | – | – |
| AGUAACUAUCACGAAAGUGAUAGUUACAAAACAAGUGAAACAUGAGGAUCACCCAUGUCCUCAUUUGCUCGUCUUAU [Sensor 3 - 2] (puzzle: Sensor v3, turn-off variant 2) | 257 | – | – | – | 118 | 189 |
| AAACGGCAUAGAGGAUAUGCUUACCUGGGUCGUCUUCAAACAUGAGGAUCACCCAUGUAGUCGACGCAGAAGGUUAUCAAAGCC [ExNG2 2nd] (Eterna round: R96, puzzle: Exclusion NG 2) | – | 16 | 12.2 | 17.9 | – | – |
| AAUUAAGCAAGCAGAUCCCACAUGAGGAUCACCCAUGUGCUCGUCUUAUAAGGUACUGUGACGAGAGUCACGGUACC [Mat - Sensor, turn-off var - Eli Mod - D70] (Eterna round: R97, puzzle: Sensor, turn-off variant 1) | – | 128 | – | 97.1 | – | – |
| GAUUGACAUGAGGAUCACCCAUGUGAGGAUAUCGGCUGGACCGUGUUGGCGUGCCUCUCGAGAAGGCGCAUAGG [Exclusion 1 V54] (puzzle: Exclusion 1) | 39.9 | – | – | – | 64.8 | 51.3 |
| CGUGCGUAUGUGAGGAUAUGCUGGUCCUUGGAUCGGCAGAAGGCACAUGAGGAUCACCCAUGUGGUGUCGUACC [salish99_Bmod_ex4_074] (puzzle: Brourd's mod of Exclusion 4) | 123 | – | – | – | – | – |
| AUUUAGUCAGGAUAUACAUGAGGAUCACCCAUGUAAACUUUUAGUUUAAUUUGAAUGUGUAGAAGGGACAUUUA [Ex3 #46] (Eterna round: R97, puzzle: Exclusion 3) | – | 26 | – | 28 | – | – |
| CAGUACUGAGGAUAUACAUGAGGAUCACCCAUGUGUCUUCAAUUAGGAAACUAGUUAUGUAGAAGGCAGUACUG [Omei Ex3 Mod of Eli 4.27 v9] (Eterna round: R97, puzzle: Exclusion 3) | – | 770 | – | 62.2 | – | – |
| AUCCUUAACAAGGAUAUCGGGCGGGAAAUUGUUUGAGAAGGUGUAACAUGAGGAUCACCCAUGUAAAAUAUGAA [-14.9, -13.5 kcal, A 36%] (Eterna round: R97, puzzle: Exclusion 6) | – | 21.7 | – | 31.2 | – | – |
| GGUUACAAGCUAAGAUCCUACAUGAGGAUCACCCAUGUGGUCCGGUGACGUGAGUCACCGGACUUAGCUCGUCUUGU [salish99_S_TOV1_R5_002] (Eterna round: R97, puzzle: Sensor, turn-off variant 1) | – | 75.4 | – | 80 | – | – |
| CCCGUGUUAGGAUAUACGGCACACCCACCAGCGGGUGUAUAGUAGAAGGAACAUGAGGAUCACCCAUGUAUAAC [Inardiza] (puzzle: Exclusion 4) | 32.4 | – | – | – | – | – |
| ACUAGCUUUUUGCAUAGUAGGUUUGGUGCUUCGUAUGCUACAUGAGGAUCACCCAUGUUUUACUGAUGUCGUCGUUU [JR_SV3TOV2_Sub094] (puzzle: Sensor v3, turn-off variant 2) | 52.9 | – | – | – | 32.7 | 32.3 |
| CAGUACUGAGGAUAUACAUGAGGAUCACCCAUGUGUUCCAGCGAGGAAACUAGCAAAAGUAGAAGGCAGUACUG [salish99_ex3_r3_077] (puzzle: Exclusion 3) | 18.4 | – | – | – | 199 | 17.5 |
| UGGGAGGGAGGAUAUACGAAAGUUAUUCUCAUGUCAGACCCACAUGAGGAUCACCCAUGUAGAAGGCCCGGGUC [EX2 B.17] (Eterna round: R97, puzzle: Exclusion 2) | – | 358 | – | 203 | – | – |

| Sequence | apparent KD of MS2 coat protein [1] [nM] | apparent KD of MS2 coat protein (input ligand: FMN 200 uM) [nM] | apparent KD of MS2 coat protein [2] [nM] | apparent KD of MS2 coat protein (input ligand: none) [nM] | apparent KD of MS2 coat protein [3] [nM] | apparent KD of MS2 coat protein [4] [nM] |
| --- | --- | --- | --- | --- | --- | --- |
| UCUCGACAUGAGGAUCACCCAUGUCAGGAUAUUGUGUUUGAGGUUUUUUACCUUUUGACAAGAAGGGAUGUGUG [LRO-Excl1-22] (puzzle: Exclusion 1) | 28.6 | – | – | – | – | – |
| CCUUGUCUGAAGGAUAUCCGCCUAAAAGGCAAGGGAGAAGGUUAGACAUGAGGAUCACCCAUGUGCCGGUGUAA [EX6 A.26] (Eterna round: R97, puzzle: Exclusion 6) | – | 21.7 | – | 25.1 | – | – |
| GCAGGAUAAGUGAGGAUAUACCUAUGGAUACAUAGGUAGAAGGCACAUGAGGAUCACCCAUGUUCCUUACCUGC [Fiskers BMX 4 - 66] (puzzle: Brourd's mod of Exclusion 4) | 11.5 | – | – | – | 42 | 13 |
| GGAGUUAGAGAGGAUAUGGAGGAGAGGCCAAUUCCAGAAGGUUCAACAUGAGGAUCACCCAUGUAUUUUCCUCA [AK-MS2ROC-r4-exclusion6-2] (Eterna round: R97, puzzle: Exclusion 6) | – | 25.6 | – | 33.8 | – | – |
| GCAGCGUAGUCCAAAUAGGACAUACAUGAGGAUCACCCAUGUCAGGAUAUGGUCUGGAUUACAGGCCAGAAGGGACAAAGCUGC [Eli exng3 - 003] (Eterna round: R96, puzzle: Exclusion NG 3) | – | 19 | 15.8 | 26 | – | – |
| GUGCGCGGCUAGGAUAUUGUGGGUUUUUGUCUGCGAGAAGGAGCCACAUGAGGAUCACCCAUGUGGUGUUGCUC [salish99_ex6_r4_013] (Eterna round: R97, puzzle: Exclusion 6) | – | 220 | – | 63.6 | – | – |
| UAUUAGAGAGGAUAUAUGAUGUGAAACAUGAGGAUCACCCAUGUAAUAUUAUGGAUGUAAAUAGAAGGCUCAUUUA [Mat - Exclusion 5 - JL mod - D15] (puzzle: Exclusion 5) | 77.5 | – | – | – | 47.4 | 80.2 |
| CUUCUCUCAUGGAAUCCUGACAUGAGGAUCACCCAUGUUGCUGAGGAUAUCCAGCGCUACGGCGCGGAGAAGGCGGCUCUUAAA [Enties] (Eterna round: R96, puzzle: Exclusion NG 3) | – | 12.9 | 10 | 17.2 | – | – |
| CGAUGAGGAGUGAGGAUAUCGUGUUCGAAAGAACGUGAGAAGGCACAUGAGGAUCACCCAUGUGAUCCUCAUGG [Omei Ex4B A23] (Eterna round: R97, puzzle: Brourd's mod of Exclusion 4) | – | 1030 | – | 164 | – | – |
| AUUUAAUUUAGCGAGAUCACAUGAGGAUCACCCAUGUAUAUAUAGGAUAUCAGCUCGUGUAGAGCUGAGAAGGAUAUAUACCGC [ExNG3/7-A3] (Eterna round: R96, puzzle: Exclusion NG 3) | – | 108 | 72.5 | 88.1 | – | – |
| UUUGUUUAUGUAGGAUAUGCCUGGCGUGCCUUUGCAGAAGGACAUGAGGAUCACCCAUGUAACAUGAGGCUCACCCAUGUCGCU [salish99_ExNG1_r04_111] (Eterna round: R96, puzzle: Exclusion NG 1) | – | 240 | 180 | 292 | – | – |
| GUAUGGAGAGUGAGGAUAUUUCCUGAGUGAUCAGCGAAGAAGGUACAUGAGGAUCACCCAUGUAGGUGGACUAA [Eternabot (L1) Solution 14] (Eterna round: R97, puzzle: Brourd's mod of Exclusion 4) | – | 82.4 | – | 70.5 | – | – |
| GAAUGAGAGCAGGAUAUCUUAUAAAUGUAUGAAAGAGAAGGGCUCACAUGAGGAUCACCCAUGUGGUCCUAGAU [jl-ex6-4.76 jandersonlee mod] (Eterna round: R97, puzzle: Exclusion 6) | – | 645 | – | 35.2 | – | – |
| GGAUUUACUGAGGAUAUUGCAUCACCCGACUGAUAAGAAGGCAGAACAUGAGGAUCACCCAUGUGGGUACUCAA [Bingo-Bango-5] (Eterna round: R97, puzzle: Exclusion 6) | – | 95 | – | 105 | – | – |
| UCGGCGCGAGGAUAUGCGGCUGGUGCUUCGGGCUCUGGCGUACAUGAGGAUCACCCAUGUAGAAGGCGCGCCGC [Apr-15 SS2-42] (puzzle: Exclusion 2) | 10.5 | – | – | – | – | – |
| UUUUAGAGAGGAUAUAUAUUGUGAAACAUGAGGAUCACCCAUGUAAUAAUAUGGAUGUAAAUAGAAGGCUCAUUUA [JL-ex5-3.03] (puzzle: Exclusion 5) | 44.6 | – | – | – | 37.5 | 42.7 |
| GGUCCACAUGAGGAUCACCCAUGUUAGGAUAUCUCGUCCGAGCAGUUAUGGGCCGGGCAGAGAAGGAAUGUGAA [Orbibibi] (puzzle: Exclusion 1) | 25.7 | – | – | – | – | – |
